The source of these data is patent publication CN114539423A (dated 2022).

Assay [1] has as its target CD3 (on human T cells) (human). The experiment in a line: flow cytometry titration on human T cells, same method as for Nalm6, fitted in GraphPad Prism8. A general note: Flow cytometry measures light scatter and fluorescence of single cells or particles in a stream.
Assay [2] has as its target T1, CD19 (on Nalm6 leukemia cells) (human, UniProt P15391 20-556).
T1 construct: whole, on cells; also called CD19抗原; Nalm6上的CD19抗原
T1 sequence (looked up): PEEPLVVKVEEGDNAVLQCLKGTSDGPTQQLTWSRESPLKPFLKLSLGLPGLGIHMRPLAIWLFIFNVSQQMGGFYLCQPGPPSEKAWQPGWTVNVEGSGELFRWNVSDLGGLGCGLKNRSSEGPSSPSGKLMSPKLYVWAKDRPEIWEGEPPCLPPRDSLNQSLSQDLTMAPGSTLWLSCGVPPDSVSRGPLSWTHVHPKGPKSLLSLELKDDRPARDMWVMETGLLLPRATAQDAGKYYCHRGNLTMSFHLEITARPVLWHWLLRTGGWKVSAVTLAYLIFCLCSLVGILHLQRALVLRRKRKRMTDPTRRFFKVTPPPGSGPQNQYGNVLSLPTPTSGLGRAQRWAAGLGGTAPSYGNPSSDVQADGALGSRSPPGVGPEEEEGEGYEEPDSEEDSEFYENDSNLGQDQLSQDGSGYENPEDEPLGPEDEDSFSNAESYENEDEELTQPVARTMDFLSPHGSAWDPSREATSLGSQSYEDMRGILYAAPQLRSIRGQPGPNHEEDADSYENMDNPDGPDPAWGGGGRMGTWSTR
Put plainly: flow cytometry titration (0.05-100 nM) on Nalm6 cells, anti-His then APC anti-mouse IgG detection, fitted in GraphPad Prism8.

CD3 (on human T cells) (human), sequence (P07766 23-207, chain 1 of 4): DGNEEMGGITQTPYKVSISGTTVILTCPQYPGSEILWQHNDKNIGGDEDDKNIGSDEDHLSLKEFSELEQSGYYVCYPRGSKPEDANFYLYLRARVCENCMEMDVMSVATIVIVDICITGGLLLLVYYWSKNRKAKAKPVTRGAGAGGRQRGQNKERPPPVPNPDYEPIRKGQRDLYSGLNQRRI
CD3 (on human T cells) (human), sequence (P09693 23-182, chain 2 of 4, further chain): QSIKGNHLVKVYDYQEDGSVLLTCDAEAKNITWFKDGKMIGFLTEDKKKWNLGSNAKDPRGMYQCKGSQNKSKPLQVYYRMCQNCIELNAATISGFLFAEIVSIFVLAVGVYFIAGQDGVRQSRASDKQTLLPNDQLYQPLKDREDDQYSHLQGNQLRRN
CD3 (on human T cells) (human), sequence (P04234 22-171, chain 3 of 4, further chain): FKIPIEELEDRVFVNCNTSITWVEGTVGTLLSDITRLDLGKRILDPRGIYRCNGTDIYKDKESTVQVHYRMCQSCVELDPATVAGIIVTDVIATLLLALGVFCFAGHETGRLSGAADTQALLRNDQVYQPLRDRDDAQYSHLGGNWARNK
CD3 (on human T cells) (human), sequence (P20963 22-164, chain 4 of 4, further chain): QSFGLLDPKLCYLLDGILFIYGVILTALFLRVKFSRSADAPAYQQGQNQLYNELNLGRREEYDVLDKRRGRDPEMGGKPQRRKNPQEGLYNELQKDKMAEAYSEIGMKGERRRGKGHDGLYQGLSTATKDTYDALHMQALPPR

B1: CD19scFv-CD80-CD3scFv三特异性融合蛋白 (other)
chain: HHHHHHLEDIVLTQSPKFMSTSVGDRVSVTCKASQNVGTNVAWYQQKPGQSPKPLIYSATYRNSGVPDRFTGSGSGTDFTLTITNVQSKDLADYFCQQYNRYPYTSGGGTKLEIKRGGGGSGGGGSGGGGSQVQLQQSGAELVRPGSSVKISCKASGYAFSSYWMNWVKQRPGQGLEWIGQIYPGDGDTNYNGKFKGQATLTADKSSSTAYMQLSGLTSEDSAVYFCARKTISSVVDFYFDYWGQGTTLTVSSEFGGGGSGGGGSGGGGSGGGGSVIHVTKEVKEVATLSCGHNVSVEELAQTRIYWQKEKKMVLTMMSGDMNIWPEYKNRTIFDITNNLSIVILALRPSDEGTYECVVLKYEKDAFKREHLAEVTLSVKADFPTPSISDFEIPTSNIRRIICSTSGGFPEPHLSWLENGEELNAINTTVSQDPETELYAVSSKLDFNMTTNHSFMCLIKYGHLRVNQTFNWNTTKQEHFPDNGGGGSGGGGSGGGGSGGGGSVDADIELTQSPAIMSASPGEKVTMTCSASSSVSYMNWYQQKSGTSPKRWIYDTSKLASGVPARFSGSGSGTSYSLTISGMEAEDAATYYCQQWSSNPFTFGSGTKLELKRGGGGSGGGGSGGGGSQVQLQQSGAELARPGASVKMSCKASGYTFTRYTMHWVKQRPGQGLEWIGYINPSRGYTNYNQKFKDKATLTTDKSSSTAYMELTRLTSEDSAVYYCARYYDDHYSLDYWGQGTTVTVSSWSHPQFEK
notes: Expressed in ExpiCHO-S cells; also called 19TriTE; CD19scFv-CD80-CD3scFv重组融合蛋白
Usually Kd stands for the equilibrium constant for the complex coming apart. A high value points to a looser complex. As for B1, the equilibrium dissociation constant (Kd) was 19.2 nM in assay [1] and 11.7 nM in assay [2].
